Assay results: PMC3064491 (Nature, 2011)

Biological target: T1, human OGT construct (hOGT4.5) containing 4.5 TPR units and the catalytic domain (human, UniProt O15294-3 313-1031)
T1 sequence (looked up): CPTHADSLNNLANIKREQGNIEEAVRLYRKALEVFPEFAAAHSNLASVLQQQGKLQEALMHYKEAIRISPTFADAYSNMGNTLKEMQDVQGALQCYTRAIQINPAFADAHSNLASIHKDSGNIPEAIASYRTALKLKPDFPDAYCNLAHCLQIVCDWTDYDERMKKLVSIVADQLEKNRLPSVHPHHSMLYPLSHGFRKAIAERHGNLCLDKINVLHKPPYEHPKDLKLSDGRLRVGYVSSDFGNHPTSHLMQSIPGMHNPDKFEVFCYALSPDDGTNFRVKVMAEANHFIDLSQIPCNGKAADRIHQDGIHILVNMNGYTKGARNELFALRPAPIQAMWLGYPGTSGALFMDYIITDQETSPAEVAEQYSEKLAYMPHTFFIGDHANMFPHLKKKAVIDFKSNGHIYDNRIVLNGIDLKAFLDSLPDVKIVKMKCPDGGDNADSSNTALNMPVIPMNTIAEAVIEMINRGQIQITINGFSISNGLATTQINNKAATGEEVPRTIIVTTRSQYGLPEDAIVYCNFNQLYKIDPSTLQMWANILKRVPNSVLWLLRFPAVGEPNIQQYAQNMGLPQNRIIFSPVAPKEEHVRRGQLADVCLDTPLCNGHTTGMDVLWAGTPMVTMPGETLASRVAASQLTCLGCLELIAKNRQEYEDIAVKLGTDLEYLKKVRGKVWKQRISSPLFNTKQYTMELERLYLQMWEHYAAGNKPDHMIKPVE
Assay: crystal structure

binding result: binds
Binder: YPGGSTPVSSANMM [14 residue-CKII peptide substrate]
